Experiments:
[1] = target: CD9(ECD)-ALP conjugate (human; bovine); assay: HI-1000 capture immunoassay; secondary calibrator C1; mean of 3 aliquots
[2] = target: CD9(ECD)-ALP conjugate (human; bovine); assay: HI-1000 capture immunoassay; thawed aliquot 1 of secondary calibrator C2
[3] = target: CD9(ECD)-ALP conjugate (human; bovine); assay: HI-1000 capture immunoassay; primary calibrator C5, 159.87 ng/mL; run 1
[4] = target: CD9(FL)-ALP conjugate (human; bovine); assay: HI-1000 capture immunoassay; calibrator C1, 1.0 ng/mL; run 2
Chain of CD9(FL)-ALP conjugate (human; bovine) (chain, as listed by the source, chain 1 of 2): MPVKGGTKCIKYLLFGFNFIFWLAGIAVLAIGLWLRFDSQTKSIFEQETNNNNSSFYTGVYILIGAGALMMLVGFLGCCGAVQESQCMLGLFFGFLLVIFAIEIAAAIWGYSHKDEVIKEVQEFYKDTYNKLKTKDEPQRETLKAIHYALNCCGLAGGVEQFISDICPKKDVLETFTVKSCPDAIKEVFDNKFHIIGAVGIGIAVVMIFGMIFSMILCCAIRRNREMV
Chain of CD9(FL)-ALP conjugate (human; bovine) (P19111 20-506, chain 2 of 2): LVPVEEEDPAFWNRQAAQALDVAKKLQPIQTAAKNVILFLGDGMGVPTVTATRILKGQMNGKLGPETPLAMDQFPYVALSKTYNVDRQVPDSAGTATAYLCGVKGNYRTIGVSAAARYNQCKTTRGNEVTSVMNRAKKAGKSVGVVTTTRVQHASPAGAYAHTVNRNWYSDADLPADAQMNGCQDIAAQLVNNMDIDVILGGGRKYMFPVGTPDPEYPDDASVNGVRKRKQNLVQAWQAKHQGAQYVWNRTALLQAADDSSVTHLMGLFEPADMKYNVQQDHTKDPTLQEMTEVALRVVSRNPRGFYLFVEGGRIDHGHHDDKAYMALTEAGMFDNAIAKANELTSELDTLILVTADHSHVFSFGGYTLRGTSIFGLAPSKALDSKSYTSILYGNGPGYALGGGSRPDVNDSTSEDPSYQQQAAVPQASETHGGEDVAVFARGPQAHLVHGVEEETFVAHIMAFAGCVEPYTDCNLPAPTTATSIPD

[5] = target: CD9(FL)-ALP conjugate (human; bovine); assay: HI-1000 capture immunoassay; calibrator C2, 5.48 mU/L; run 2
[6] = target: CD9(ECD)-ALP conjugate (human; bovine); assay: HI-1000 capture immunoassay; secondary calibrator C4, 129.62 U/L; run 2
[7] = target: CD9(FL)-ALP conjugate (human; bovine); assay: HI-1000 capture immunoassay; calibrator C4, 15 ng/mL; run 3
[8] = target: CD9(ECD)-ALP conjugate (human; bovine); assay: HI-1000 capture immunoassay; secondary calibrator C1, 1.02 U/L; run 3
[9] = target: CD9(ECD)-ALP conjugate (human; bovine); assay: HI-1000 capture immunoassay; primary calibrator C2, 4.89 ng/mL; run 1
[10] = target: CD9(ECD)-ALP conjugate (human; bovine); assay: HI-1000 capture immunoassay; primary calibrator C3, 15.65 ng/mL; run 1
[11] = target: CD9(ECD)-ALP conjugate (human; bovine); assay: HI-1000 capture immunoassay; primary calibrator C3, 15.65 ng/mL; run 2
[12] = target: CD9(ECD)-ALP conjugate (human; bovine); assay: HI-1000 capture immunoassay; primary calibrator C1, 1.52 ng/mL; mean of 3
[13] = target: CD9(FL)-ALP conjugate (human; bovine); assay: HI-1000 capture immunoassay; calibrator C4, 21.93 mU/L; run 3
[14] = target: CD9(FL)-ALP conjugate (human; bovine); assay: HI-1000 capture immunoassay; calibrator C1, 1.83 mU/L; run 1
[15] = target: CD9(FL)-ALP conjugate (human; bovine); assay: HI-1000 capture immunoassay; calibrator C5, 30 ng/mL; mean of 3
[16] = target: CD9(FL)-ALP conjugate (human; bovine); assay: HI-1000 capture immunoassay; calibrator C2, 3.7 ng/mL; run 2
[17] = target: CD9(ECD)-ALP conjugate (human; bovine); assay: HI-1000 capture immunoassay; primary calibrator C3, 15.65 ng/mL; mean of 3
[18] = target: CD9(ECD)-ALP conjugate (human; bovine); assay: HI-1000 capture immunoassay; thawed aliquot 3 of secondary calibrator C5
[19] = target: CD9(ECD)-ALP conjugate (human; bovine); assay: HI-1000 capture immunoassay; secondary calibrator C5, 387.01 U/L; mean of 3
[20] = target: CD9(FL)-ALP conjugate (human; bovine); assay: HI-1000 capture immunoassay; calibrator C2, 5.48 mU/L; mean of 3

Chain of CD9(ECD)-ALP conjugate (human; bovine) (chain, as listed by the source, chain 1 of 2): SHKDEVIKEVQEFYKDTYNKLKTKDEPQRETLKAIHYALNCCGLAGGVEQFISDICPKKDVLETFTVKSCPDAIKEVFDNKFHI
Chain of CD9(ECD)-ALP conjugate (human; bovine) (P19111 20-506, chain 2 of 2): as the sequence (P19111 20-506, chain 2 of 2) above

With anti-CD9 antibody (Clone: H19a) the Count value (av) [1] was 811 count, the Count value [2] was 1560 count and the Count value [3] was 70400 count. It also gave a Count value [4] of 1550 count, a Count value [5] of 3520 count and a Count value [6] of 69400 count. For the same substance, the Count value [7] was 13900 count, the Count value [8] was 912 count and the Count value [9] was 2610 count. The Count value [10] was 7340 count, the Count value [11] was 7230 count and the Count value (av) [12] was 1100 count. The Count value [13] was 13300 count, the Count value [14] was 1580 count and the Count value (av) [15] was 25900 count. The Count value [16] was 8680 count, the Count value (av) [17] was 7190 count and the Count value [18] was 35700 count. For the same substance, the Count value (av) [19] was 216000 count and the Count value (av) [20] was 3640 count.

Reference: patent US20240118272A1
